Laboratory results reported in the supplement of paper PMC10567573.

B1: STK38L (parent)
chain: FCIDSENRIGNSGVEEIKGHPFFE
B2: INTS3 (parent)
chain: EEITEESLEESVGKPLYLIFRNLC

Variants of: B1
Experiment: protein stability index of a GFP-peptide fusion (GPS, HEK-293T) (PSI 1-6); higher = more stable
Conditions: c terminus: a fixed tail appended
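Note: lentivirally expressed fusions sorted by FACS into six bins by GFP to DsRed ratio, PSI derived from sequencing read proportions per bin multiplied by bin number.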

Variant | protein stability index
FCIDSENRIGNSGVEEIKGHPQFE [F22Q] | 3.1
FCIDSENRIGNSGVEEIKGHPDFE [F22D] | 5.23
FCIDSENRIGNSGVEEIKGHPKFE [F22K] | 4.49
FCIDSENRIGNSGVEEIKGHPAFE [F22A] | 3.58
FCIDSENRIGNSGVEEIKGHPYFE [F22Y] | 2.42
FCIDSENRIGNSGVEEIKGHPCFE [F22C] | 3.81
FCIDSENRIGNSGVEEIKGHPPFE [F22P] | 4.32
FCIDSENRIGNSGVEEIKGHPGFE [F22G] | 4.37
FCIDSENRIGNSGVEEIKGHPLFE [F22L] | 3.74
FCIDSENRIGNSGVEEIKGHPNFE [F22N] | 4.5
FCIDSENRIGNSGVEEIKGHPVFE [F22V] | 4.11
FCIDSENRIGNSGVEEIKGHPTFE [F22T] | 4.5
FCIDSENRIGNSGVEEIKGHPHFE [F22H] | 4.33
FCIDSENRIGNSGVEEIKGHPRFE [F22R] | 4.21
FCIDSENRIGNSGVEEIKGHPEFE [F22E] | 4.79
FCIDSENRIGNSGVEEIKGHPIFE [F22I] | 3.65
FCIDSENRIGNSGVEEIKGHPFKE [F23K] | 2.19
FCIDSENRIGNSGVEEIKGHPFDE [F23D] | 4.86
FCIDSENRIGNSGVEEIKGHPFVE [F23V] | 1.85
FCIDSENRIGNSGVEEIKGHPFAE [F23A] | 1.78
FCIDSENRIGNSGVEEIKGHPFTE [F23T] | 1.46

Variant | protein stability index
FCIDSENRIGNSGVEEIKGHPFCE [F23C] | 1.8
FCIDSENRIGNSGVEEIKGHPFSE [F23S] | 1.93
FCIDSENRIGNSGVEEIKGHPFWE [F23W] | 2.02
FCIDSENRIGNSGVEEIKGHPFLE [F23L] | 2.52
FCIDSENRIGNSGVEEIKGHPFRE [F23R] | 1.72
FCIDSENRIGNSGVEEIKGHPFME [F23M] | 1.07
FCIDSENRIGNSGVEEIKGHPFHE [F23H] | 2.69
FCIDSENRIGNSGVEEIKGHPFIE [F23I] | 2.47
FCIDSENRIGNSGVEEIKGHPFYE [F23Y] | 3.35
FCIDSENRIGNSGVEEIKGHPFPE [F23P] | 4.07
FCIDSENRIGNSGVEEIKGHPFNE [F23N] | 4.2
FCIDSENRIGNSGVEEIKGHPFFH [E24H] | 1.54
FCIDSENRIGNSGVEEIKGHPFFP [E24P] | 2.01
FCIDSENRIGNSGVEEIKGHPFFG [E24G] | 1.59
FCIDSENRIGNSGVEEIKGHPFFM [E24M] | 1.45
FCIDSENRIGNSGVEEIKGHPFFT [E24T] | 1.21
FCIDSENRIGNSGVEEIKGHPFFI [E24I] | 2.72
FCIDSENRIGNSGVEEIKGHPFFY [E24Y] | 1.69
FCIDSENRIGNSGVEEIKGHPFFF [E24F] | 1.74
FCIDSENRIGNSGVEEIKGHPFFC [E24C] | 2.7
FCIDSENRIGNSGVEEIKGHPFFN [E24N] | 2.19

Variant | protein stability index
FCIDSENRIGNSGVEEIKGHPFFA [E24A] | 1.92
FCIDSENRIGNSGVEEIKGHPFFV [E24V] | 1.71
FCIDSENRIGNSGVEEIKGHPFFW [E24W] | 1.61
FCIDSENRIGNSGVEEIKGHPFFK [E24K] | 1.72
FCIDSENRIGNSGVEEIKGHPFFD [E24D] | 2.24
FCIDSENRIGNSGVEEIKGHPFFQ [E24Q] | 1.75
FCIDSENRIGNSGVEEIKGHPFFS [E24S] | 2.15
FCIDSENRIGNSGVEEIKGHPFFL [E24L] | 4
FCIDSENRIGNSGVEEIKGHHFFE [P21H] | 2.89
FCIDSENRIGNSGVEEIKGHSFFE [P21S] | 3.73
FCIDSENRIGNSGVEEIKGHIFFE [P21I] | 2.46
FCIDSENRIGNSGVEEIKGHTFFE [P21T] | 2.91
FCIDSENRIGNSGVEEIKGHKFFE [P21K] | 2.84
FCIDSENRIGNSGVEEIKGHWFFE [P21W] | 1.9
FCIDSENRIGNSGVEEIKGHNFFE [P21N] | 3.13
FCIDSENRIGNSGVEEIKGHVFFE [P21V] | 2.28
FCIDSENRIGNSGVEEIKGHQFFE [P21Q] | 2.99
FCIDSENRIGNSGVEEIKGHYFFE [P21Y] | 2.25
FCIDSENRIGNSGVEEIKGHLFFE [P21L] | 1.42
FCIDSENRIGNSGVEEIKGHMFFE [P21M] | 1.94
FCIDSENRIGNSGVEEIKGHRFFE [P21R] | 2.97

Variants of: B2
Experiment: as above
Conditions: c terminus: a fixed tail appended

Variant | protein stability index
LEITEESLEESVGKPLYLIFRNLC [E1L] | 2.46
VEITEESLEESVGKPLYLIFRNLC [E1V] | 2.31
DEITEESLEESVGKPLYLIFRNLC [E1D] | 2.68
NEITEESLEESVGKPLYLIFRNLC [E1N] | 2.88
CEITEESLEESVGKPLYLIFRNLC [E1C] | 2.29
HEITEESLEESVGKPLYLIFRNLC [E1H] | 2.67
REITEESLEESVGKPLYLIFRNLC [E1R] | 2.2
AEITEESLEESVGKPLYLIFRNLC [E1A] | 3.14
KEITEESLEESVGKPLYLIFRNLC [E1K] | 2.51
QEITEESLEESVGKPLYLIFRNLC [E1Q] | 3.06
MEITEESLEESVGKPLYLIFRNLC [E1M] | 2.45
WEITEESLEESVGKPLYLIFRNLC [E1W] | 2.52
GEITEESLEESVGKPLYLIFRNLC [E1G] | 2.69
YEITEESLEESVGKPLYLIFRNLC [E1Y] | 2.3
SEITEESLEESVGKPLYLIFRNLC [E1S] | 2.58
TEITEESLEESVGKPLYLIFRNLC [E1T] | 2.6

Variant | protein stability index
FEITEESLEESVGKPLYLIFRNLC [E1F] | 1.8
IEITEESLEESVGKPLYLIFRNLC [E1I] | 2.22
PEITEESLEESVGKPLYLIFRNLC [E1P] | 2.27
EEIVEESLEESVGKPLYLIFRNLC [T4V] | 2.3
EEILEESLEESVGKPLYLIFRNLC [T4L] | 2.28
EEIIEESLEESVGKPLYLIFRNLC [T4I] | 1.98
EEIDEESLEESVGKPLYLIFRNLC [T4D] | 3.38
EEIFEESLEESVGKPLYLIFRNLC [T4F] | 2.01
EEIKEESLEESVGKPLYLIFRNLC [T4K] | 2.46
EEICEESLEESVGKPLYLIFRNLC [T4C] | 2.46
EEIREESLEESVGKPLYLIFRNLC [T4R] | 2.3
EEISEESLEESVGKPLYLIFRNLC [T4S] | 2.4
EEINEESLEESVGKPLYLIFRNLC [T4N] | 2.83
EEIWEESLEESVGKPLYLIFRNLC [T4W] | 1.68
EEIEEESLEESVGKPLYLIFRNLC [T4E] | 2.41
